Reference: patent US20240115667A1 (priority 2020, published 2024)
Entries after “also recorded” stand apart in the source; their conditions may differ.

Key:
SARS-CoV-2 [1] = assay type: cell-based; details: 400 μg/ml lactoferrin, 48 h after infection
SARS-CoV-2 [2] = system: SARS-CoV-2

B1: lactoferrin: lactoferrin from human milk; iron-binding ~80 kDa glycosylated protein (protein, UniProt P02788 20-710, looked up)
Lactotransferrin: GRRRSVQWCAVSQPEATKCFQWQRNMRKVRGPPVSCIKRDSPIQCIQAIAENRADAVTLDGGFIYEAGLAPYKLRPVAAEVYGTERQPRTHYYAVAVVKKGGSFQLNELQGLKSCHTGLRRTAGWNVPIGTLRPFLNWTGPPEPIEAAVARFFSASCVPGADKGQFPNLCRLCAGTGENKCAFSSQEPYFSYSGAFKCLRDGAGDVAFIRESTVFEDLSDEAERDEYELLCPDNTRKPVDKFKDCHLARVPSHAVVARSVNGKEDAIWNLLRQAQEKFGKDKSPKFQLFGSPSGQKDLLFKDSAIGFSRVPPRIDSGLYLGSGYFTAIQNLRKSEEEVAARRARVVWCAVGEQELRKCNQWSGLSEGSVTCSSASTTEDCIALVLKGEADAMSLDGGYVYTAGKCGLVPVLAENYKSQQSSDPDPNCVDRPVEGYLAVAVVRRSDTSLTWNSVKGKKSCHTAVDRTAGWNIPMGLLFNQTGSCKFDEYFSQSCAPGSDPRSNLCALCIGDEQGENKCVPNSNERYYGYTGAFRCLAENAGDVAFVKDVTVLQNTDGNNNEAWAKDLKLADFALLCLDGKRKPVTEARSCHLAMAPNHAVVSRMDKVERLKQVLLHQQAKFGRNGSDCPDKFCLFQSETKNLLFNDNTECLARLHGKTTYEKYLGPQYVAGITNLKKCSTSPLLEACEFLRK
Decrease of N-protein RNA copies (SARS-CoV-2 [1]): 28.0%

B2: Unsaturated iron lactoferrin: lactoferrin that has been depleted of iron; also termed reduced iron lactoferrin or apolactoferrin (protein, UniProt P02788 20-710, looked up)
Lactotransferrin: B1 Lactotransferrin
modifications: iron-depleted apolactoferrin
Inhibition of SARS-CoV-2 infection in vitro (SARS-CoV-2 [2]): directly inhibited SARS-CoV-2 infection more effectively compared to hololactoferrin; also recorded: inhibited SARS-CoV-2 infection when administered alone | Reduction of virus-induced cytotoxicity (SARS-CoV-2 [2]; MOI 0.3): more effective than recombinant lactoferrin
